According to paper PMC8551270 (Scientific Reports, 2021):
Entries after “also recorded” stand apart in the source; their conditions may differ.

Assays:
[1] = plasma samples from minipigs dosed i.v., pooled from two minipigs for each time point; conditions: Göttingen Minipigs, up to 288 h post dosing
[2] = target: PYY3-36 analogue 60: [Lys4(TAMRA), Lys30(C20 diacid-gammaGlu-2xAdo)]PYY3-36 L30K (acylated) (UniProt P10082); assay: fluorescence polarization (TAMRA-labelled peptide; excitation 535/25 nm, emission 595/35 nm; Tecan Spark, 384-well plate); conditions: room temperature, 140 mM NaCl at pH 7.4, 150 mM NaCl at pH 6.0, 10 mM sodium phosphate at pH 7.4, 20 mM MES at pH 6.0
PYY3-36 analogue 60: [Lys4(TAMRA), Lys30(C20 diacid-gammaGlu-2xAdo)]PYY3-36 L30K (acylated), sequence (P10082 whole entry, stated change not applied): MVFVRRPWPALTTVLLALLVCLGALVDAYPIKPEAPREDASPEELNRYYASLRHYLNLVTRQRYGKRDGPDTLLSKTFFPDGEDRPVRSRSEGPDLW

[3] = target: PYY3-36 analogue 58: [Lys4(TAMRA), Lys30(C14 diacid-gammaGlu-2xAdo)]PYY3-36 L30K (acylated) (UniProt P10082); assay: as above; conditions: room temperature, 140 mM NaCl at pH 7.4, 150 mM NaCl at pH 6.0, 10 mM sodium phosphate at pH 7.4, 20 mM MES at pH 6.0
PYY3-36 analogue 58: [Lys4(TAMRA), Lys30(C14 diacid-gammaGlu-2xAdo)]PYY3-36 L30K (acylated), sequence (P10082 whole entry, stated change not applied): as above

[4] = target: PYY3-36 analogue 56: [Lys4(TAMRA), Lys30(C18 diacid-gammaGlu-2xAdo)]PYY3-36 L30K (acylated) (UniProt P10082); assay: as above; conditions: room temperature, 140 mM NaCl at pH 7.4, 150 mM NaCl at pH 6.0, 10 mM sodium phosphate at pH 7.4, 20 mM MES at pH 6.0
PYY3-36 analogue 56: [Lys4(TAMRA), Lys30(C18 diacid-gammaGlu-2xAdo)]PYY3-36 L30K (acylated), sequence (P10082 whole entry, stated change not applied): as above

[5] = target: PYY3-36 analogue 59: [Lys4(TAMRA), Lys30(C16 diacid-gammaGlu-2xAdo)]PYY3-36 L30K (acylated) (UniProt P10082); assay: as above; conditions: room temperature, 140 mM NaCl at pH 7.4, 150 mM NaCl at pH 6.0, 10 mM sodium phosphate at pH 7.4, 20 mM MES at pH 6.0
PYY3-36 analogue 59: [Lys4(TAMRA), Lys30(C16 diacid-gammaGlu-2xAdo)]PYY3-36 L30K (acylated), sequence (P10082 whole entry, stated change not applied): as above

[6] = cited from earlier work

Kd ([2]; pH 6.0) | Kd ([2]; pH 7.4) | Kd ([3]; pH 6.0) | Kd ([3]; pH 7.4) | Kd ([4]; pH 6.0) | Kd ([4]; pH 7.4) | Kd ([5]; pH 6.0) | Kd ([5]; pH 7.4) | Substance | fragment found [1] | also measured
 |  |  |  |  |  |  |  | [(C18diacid-γGlu-2xAdo)]PYY3-36 | PYY3-34; also recorded: PYY3-35 | 
 |  |  |  |  |  |  |  | [C20diacid-Trx-γGlu-2xAdo]PYY3-36 | [C20diacid-Trx-LgGly-2xAdo]PYY3-34, major | 
 |  |  |  |  |  |  |  | [K^ε30(C18diacid-γGlu-2xAdo)]PYY3-36 | PYY4-36, minor; also recorded: PYY6-36, minor | 
0.35 µM | 0.098 µM | 23 µM | 44 µM | 0.93 µM | 0.58 µM | 4.7 µM | 4.2 µM | human serum albumin (HSA), fatty-acid free |  | 
0.46 µM | 0.27 µM | 34 µM | 48 µM | 0.89 µM | 0.6 µM | 5.3 µM | 4.5 µM | porcine serum albumin (PSA), charcoal-defatted |  | 
 |  |  |  |  |  |  |  | semaglutide |  | half-life in the minipig model [6]: approximately 46 hours
